The results in this text go back to patent publication US20140087995A1 (published 2014).

Test [1] deals with T1, rat amylin receptor (rat calcitonin receptor + rat RAMP 3) (rat, UniProt P32214 25-516; Q9JJ73 23-147).
T1 construct: whole, on cells; Membranes prepared from transiently transfected BHK tk'ts 13 cells; also called rAmylin-R; rat amylin 3(a) receptor
T1 sequence (looked up) 1: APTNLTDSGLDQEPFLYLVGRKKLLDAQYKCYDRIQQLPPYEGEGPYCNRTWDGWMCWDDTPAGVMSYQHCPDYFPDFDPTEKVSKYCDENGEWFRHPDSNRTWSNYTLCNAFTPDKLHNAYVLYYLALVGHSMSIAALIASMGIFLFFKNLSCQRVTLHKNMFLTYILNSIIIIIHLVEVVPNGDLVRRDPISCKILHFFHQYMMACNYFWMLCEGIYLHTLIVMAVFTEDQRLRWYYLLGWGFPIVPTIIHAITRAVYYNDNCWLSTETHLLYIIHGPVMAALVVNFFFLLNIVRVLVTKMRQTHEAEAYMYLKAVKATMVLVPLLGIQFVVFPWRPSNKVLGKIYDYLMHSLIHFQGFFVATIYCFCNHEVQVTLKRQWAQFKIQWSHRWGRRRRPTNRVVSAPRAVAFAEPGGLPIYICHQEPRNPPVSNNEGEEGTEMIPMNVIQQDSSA
T1 sequence (looked up) 2: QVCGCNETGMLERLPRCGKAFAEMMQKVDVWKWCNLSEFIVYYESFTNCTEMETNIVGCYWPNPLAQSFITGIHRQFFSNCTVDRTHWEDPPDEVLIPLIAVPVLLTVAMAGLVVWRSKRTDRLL
Description: SPA competition vs 125I-rat amylin, membranes (Assay VI).

Test [2] concerns the target T2, rat calcitonin receptor (rat, UniProt P32214 25-516).
T2 construct: whole, on cells; Membranes prepared from transiently transfected BHK tk'ts 13 cells; also called rCTR; rat calcitonin (a) receptor
T2 sequence (looked up): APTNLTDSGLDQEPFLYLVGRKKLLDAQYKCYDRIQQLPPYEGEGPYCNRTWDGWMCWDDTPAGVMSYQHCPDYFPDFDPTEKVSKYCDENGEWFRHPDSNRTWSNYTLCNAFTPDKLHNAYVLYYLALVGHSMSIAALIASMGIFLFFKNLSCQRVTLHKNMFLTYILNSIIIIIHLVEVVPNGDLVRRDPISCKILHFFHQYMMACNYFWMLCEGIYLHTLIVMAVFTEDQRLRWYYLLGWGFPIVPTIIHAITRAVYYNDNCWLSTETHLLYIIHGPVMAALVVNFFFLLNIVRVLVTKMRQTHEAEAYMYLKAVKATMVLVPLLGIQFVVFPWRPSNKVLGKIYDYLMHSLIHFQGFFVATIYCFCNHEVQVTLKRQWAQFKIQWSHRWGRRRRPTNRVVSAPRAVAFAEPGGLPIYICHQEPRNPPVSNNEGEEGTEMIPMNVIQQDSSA
Description: SPA competition vs 125I-calcitonin, membranes (Assay VIII).

In test [3] the target is T2, rat calcitonin receptor. Description: ratio of IC50 on rat calcitonin receptor to IC50 on rat amylin receptor.
In test [4] the target is T3, human calcitonin receptor (human, UniProt P30988 25-474).
T3 construct: whole, on cells; Membranes from stably transfected BHK cells; also called hCTR; hCT
T3 sequence (looked up): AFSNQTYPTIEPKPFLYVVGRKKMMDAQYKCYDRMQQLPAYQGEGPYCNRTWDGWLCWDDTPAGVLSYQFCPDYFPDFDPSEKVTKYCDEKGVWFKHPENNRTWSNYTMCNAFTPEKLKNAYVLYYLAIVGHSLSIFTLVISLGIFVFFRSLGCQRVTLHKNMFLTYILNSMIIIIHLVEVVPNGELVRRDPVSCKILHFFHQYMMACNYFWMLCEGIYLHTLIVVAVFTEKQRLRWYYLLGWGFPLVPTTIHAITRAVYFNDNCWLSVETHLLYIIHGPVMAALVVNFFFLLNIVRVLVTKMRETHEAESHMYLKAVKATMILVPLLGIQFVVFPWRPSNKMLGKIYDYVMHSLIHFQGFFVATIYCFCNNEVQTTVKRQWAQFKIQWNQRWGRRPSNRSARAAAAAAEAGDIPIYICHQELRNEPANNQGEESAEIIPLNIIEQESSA
Description: ratio of IC50 on human calcitonin receptor to IC50 on human amylin receptor. The method, then: The resulting pellet was resuspended, homogenized and centrifuged (20.000 rpm, 15 min) in a buffer containing 20 mM Na-HEPES and 0.1 mM EDTA (pH 7.4, buffer 2). The resulting pellet was resuspended in buffer 2 and protein concentration was measured (BCA protein Assay, Pierce). The homogenate was kept cold during the whole procedure. The membranes were kept at −80° C. until use. The assay was performed in a 384 well Optiplate (PerkinElmer) in a total volume of 40 ul. Membranes were mixed with SPA beads. Final concentration of membranes 35 ng/μL final and SPA beads was 0.05 mg/well. Test-compounds were dissolved in DMSO and further diluted in assay buffer (50 mM Hepes, pH 7.4, 1 mM CaCl2, 5 mM MgCl₂, 0.1% OA and 0.02% Tween20). […] The final mixture was incubated with shaking at 400 rpm for 120 min at 25° C. prior to centrifugation (1500 rpm, 10 min). Samples were analyzed on TopCounter™ (Packard). The IC₅₀ was calculated using (one site binding competition analysis) GraphPad Prism5 as a measure of receptor affinity.
Membranes were prepared in the following way; the cells were rinsed with PBS and incubated with Versene for approximately 5 min before harvesting. The cells were flushed with PBS and the cell-suspension was centrifuged for 5 min at 1000 rpm. Cells were homogenized (Ultrathurrax) in a buffer containing 20 mM Na-HEPES and 10 mM EDTA (pH 7.4) and centrifuged at 20.000 rpm for 15 min. The resulting pellet was resuspended, homogenized and centrifuged (20.000 rpm, 15 min) in a buffer containing 20 mM Na-HEPES and 0.1 mM EDTA (pH 7.4, buffer 2). The resulting pellet was resuspended in buffer 2 and protein concentration was measured (BCA protein Assay, Pierce). The homogenate was kept cold during the whole procedure. The membranes were kept at −80° C. until use. Assay was performed in a 384 well Optiplate (PerkinElmer) in a total volume of 40 ul. Membranes were mixed with SPA beads.

Numbered stars: 1 amine (or outer) side, 2 acyl side, 3 side chain; on linkers, the order of the positions; unused ones are H or OH. Bridge positions count the residues as written; N and C are the ends. Side chains are listed from the residue outwards. Ends that are not written are not given here. * marks the point of attachment. C20 diacid = O=C(O)CCCCCCCCCCCCCCCCCCC(=O)*; C18 diacid = O=C(O)CCCCCCCCCCCCCCCCC(=O)*; C16 diacid = O=C(O)CCCCCCCCCCCCCCC(=O)*; γGlu = O=C(O)[C@H](CCC(=O)[*:2])N[*:1]; C14 diacid = O=C(O)CCCCCCCCCCCCC(=O)*

B1: N^ε1-[(4S)-4-carboxy-4-(13-carboxytridecanoylamino)butanoyl]-[Arg17,Pro21,Pro27,His34]-h-amylin (peptide)
peptide: K([γGlu-C14 diacid])CNTATCATQRLANFLRHSSPNFGAIPSSTNVGHNTY-NH2
modifications: disulfide 2-7; N-terminus assumed
SMILES: CC[C@H](C)[C@H](NC(=O)[C@H](C)NC(=O)CNC(=O)[C@H](Cc1ccccc1)NC(=O)[C@H](CC(N)=O)NC(=O)[C@@H]1CCCN1C(=O)[C@H](CO)NC(=O)[C@H](CO)NC(=O)[C@H](Cc1c[nH]cn1)NC(=O)[C@H](CCCNC(=N)N)NC(=O)[C@H](CC(C)C)NC(=O)[C@H](Cc1ccccc1)NC(=O)[C@H](CC(N)=O)NC(=O)[C@H](C)NC(=O)[C@H](CC(C)C)NC(=O)[C@H](CCCNC(=N)N)NC(=O)[C@H](CCC(N)=O)NC(=O)[C@@H](NC(=O)[C@H](C)NC(=O)[C@@H]1CSSC[C@H](NC(=O)[C@@H](N)CCCCNC(=O)CC[C@H](NC(=O)CCCCCCCCCCCCC(=O)O)C(=O)O)C(=O)N[C@@H](CC(N)=O)C(=O)N[C@@H]([C@@H](C)O)C(=O)N[C@@H](C)C(=O)N[C@@H]([C@@H](C)O)C(=O)N1)[C@@H](C)O)C(=O)N1CCC[C@H]1C(=O)N[C@@H](CO)C(=O)N[C@@H](CO)C(=O)N[C@H](C(=O)N[C@@H](CC(N)=O)C(=O)N[C@H](C(=O)NCC(=O)N[C@@H](Cc1c[nH]cn1)C(=O)N[C@@H](CC(N)=O)C(=O)N[C@H](C(=O)N[C@@H](Cc1ccc(O)cc1)C(N)=O)[C@@H](C)O)C(C)C)[C@@H](C)O
Regarding B1, the IC50 in test [1] came to 2.52 nM; with rat calcitonin receptor [2], 707 nM. The “Ratio rCT/rAmylin binding” value with rat calcitonin receptor [3] was 280. In addition, the “Ratio hCT/hAmylin binding” value in test [4] was determined as 23.5.

B2: N^ε1-[(4S)-4-carboxy-4-(15-carboxypentadecanoylamino)butanoyl]-[Arg17,Pro21,Pro27,His34]-h-amylin (peptide)
peptide: K([γGlu-C16 diacid])CNTATCATQRLANFLRHSSPNFGAIPSSTNVGHNTY-NH2
modifications: disulfide 2-7; N-terminus assumed
SMILES: CC[C@H](C)[C@H](NC(=O)[C@H](C)NC(=O)CNC(=O)[C@H](Cc1ccccc1)NC(=O)[C@H](CC(N)=O)NC(=O)[C@@H]1CCCN1C(=O)[C@H](CO)NC(=O)[C@H](CO)NC(=O)[C@H](Cc1c[nH]cn1)NC(=O)[C@H](CCCNC(=N)N)NC(=O)[C@H](CC(C)C)NC(=O)[C@H](Cc1ccccc1)NC(=O)[C@H](CC(N)=O)NC(=O)[C@H](C)NC(=O)[C@H](CC(C)C)NC(=O)[C@H](CCCNC(=N)N)NC(=O)[C@H](CCC(N)=O)NC(=O)[C@@H](NC(=O)[C@H](C)NC(=O)[C@@H]1CSSC[C@H](NC(=O)[C@@H](N)CCCCNC(=O)CC[C@H](NC(=O)CCCCCCCCCCCCCCC(=O)O)C(=O)O)C(=O)N[C@@H](CC(N)=O)C(=O)N[C@@H]([C@@H](C)O)C(=O)N[C@@H](C)C(=O)N[C@@H]([C@@H](C)O)C(=O)N1)[C@@H](C)O)C(=O)N1CCC[C@H]1C(=O)N[C@@H](CO)C(=O)N[C@@H](CO)C(=O)N[C@H](C(=O)N[C@@H](CC(N)=O)C(=O)N[C@H](C(=O)NCC(=O)N[C@@H](Cc1c[nH]cn1)C(=O)N[C@@H](CC(N)=O)C(=O)N[C@H](C(=O)N[C@@H](Cc1ccc(O)cc1)C(N)=O)[C@@H](C)O)C(C)C)[C@@H](C)O
For B2, the IC50 in test [1] was found to be 1.24 nM; in the test with rat calcitonin receptor [2], 404 nM. Moreover, the “Ratio rCT/rAmylin binding” value with rat calcitonin receptor [3] is 327. The “Ratio hCT/hAmylin binding” value in test [4] worked out at 18.5.

B3: N^ε1-[(4S)-4-carboxy-4-(19-carboxynonadecanoylamino)butanoyl]-[Ala14,Arg17,Pro21,Pro27,Pro34]-h-amylin (peptide)
peptide: K([γGlu-C20 diacid])CNTATCATQRLAAFLRHSSPNFGAIPSSTNVGPNTY-NH2
modifications: disulfide 2-7; N-terminus assumed
SMILES: CC[C@H](C)[C@H](NC(=O)[C@H](C)NC(=O)CNC(=O)[C@H](Cc1ccccc1)NC(=O)[C@H](CC(N)=O)NC(=O)[C@@H]1CCCN1C(=O)[C@H](CO)NC(=O)[C@H](CO)NC(=O)[C@H](Cc1c[nH]cn1)NC(=O)[C@H](CCCNC(=N)N)NC(=O)[C@H](CC(C)C)NC(=O)[C@H](Cc1ccccc1)NC(=O)[C@H](C)NC(=O)[C@H](C)NC(=O)[C@H](CC(C)C)NC(=O)[C@H](CCCNC(=N)N)NC(=O)[C@H](CCC(N)=O)NC(=O)[C@@H](NC(=O)[C@H](C)NC(=O)[C@@H]1CSSC[C@H](NC(=O)[C@@H](N)CCCCNC(=O)CC[C@H](NC(=O)CCCCCCCCCCCCCCCCCCC(=O)O)C(=O)O)C(=O)N[C@@H](CC(N)=O)C(=O)N[C@@H]([C@@H](C)O)C(=O)N[C@@H](C)C(=O)N[C@@H]([C@@H](C)O)C(=O)N1)[C@@H](C)O)C(=O)N1CCC[C@H]1C(=O)N[C@@H](CO)C(=O)N[C@@H](CO)C(=O)N[C@H](C(=O)N[C@@H](CC(N)=O)C(=O)N[C@H](C(=O)NCC(=O)N1CCC[C@H]1C(=O)N[C@@H](CC(N)=O)C(=O)N[C@H](C(=O)N[C@@H](Cc1ccc(O)cc1)C(N)=O)[C@@H](C)O)C(C)C)[C@@H](C)O
notes: also called compound 94
Consider B3, for which the IC50 was determined as 0.397 nM in test [1] and 111 nM with rat calcitonin receptor [2]. The “Ratio rCT/rAmylin binding” value in the test with rat calcitonin receptor [3] came out at 280. Besides, the “Ratio hCT/hAmylin binding” value in test [4] turned out to be 46.3.

B4: N^ε1-[(4S)-4-carboxy-4-(17-carboxyheptadecanoylamino)butanoyl]-[Arg17,Pro21,Pro27,His34]-h-amylin (peptide)
peptide: K([γGlu-C18 diacid])CNTATCATQRLANFLRHSSPNFGAIPSSTNVGHNTY-NH2
modifications: disulfide 2-7; N-terminus assumed
SMILES: CC[C@H](C)[C@H](NC(=O)[C@H](C)NC(=O)CNC(=O)[C@H](Cc1ccccc1)NC(=O)[C@H](CC(N)=O)NC(=O)[C@@H]1CCCN1C(=O)[C@H](CO)NC(=O)[C@H](CO)NC(=O)[C@H](Cc1c[nH]cn1)NC(=O)[C@H](CCCNC(=N)N)NC(=O)[C@H](CC(C)C)NC(=O)[C@H](Cc1ccccc1)NC(=O)[C@H](CC(N)=O)NC(=O)[C@H](C)NC(=O)[C@H](CC(C)C)NC(=O)[C@H](CCCNC(=N)N)NC(=O)[C@H](CCC(N)=O)NC(=O)[C@@H](NC(=O)[C@H](C)NC(=O)[C@@H]1CSSC[C@H](NC(=O)[C@@H](N)CCCCNC(=O)CC[C@H](NC(=O)CCCCCCCCCCCCCCCCC(=O)O)C(=O)O)C(=O)N[C@@H](CC(N)=O)C(=O)N[C@@H]([C@@H](C)O)C(=O)N[C@@H](C)C(=O)N[C@@H]([C@@H](C)O)C(=O)N1)[C@@H](C)O)C(=O)N1CCC[C@H]1C(=O)N[C@@H](CO)C(=O)N[C@@H](CO)C(=O)N[C@H](C(=O)N[C@@H](CC(N)=O)C(=O)N[C@H](C(=O)NCC(=O)N[C@@H](Cc1c[nH]cn1)C(=O)N[C@@H](CC(N)=O)C(=O)N[C@H](C(=O)N[C@@H](Cc1ccc(O)cc1)C(N)=O)[C@@H](C)O)C(C)C)[C@@H](C)O
For B4, the figures for the IC50 (in test [1]; with rat calcitonin receptor [2]) were 1.17 nM and 47 nM, respectively. Also, the “Ratio rCT/rAmylin binding” value with rat calcitonin receptor [3] was 40.3. Moreover, the “Ratio hCT/hAmylin binding” value in test [4] worked out at 59.4.

As a reminder, the IC50 is the point on the concentration scale where inhibition reaches its midpoint.
